Data: doi:10.1101/2022.08.02.502557

Target: Trimeric LHCII complexes (the major antenna complex of photosystem II) (spinach)
Test: native gel or EMSA

Substance: Trimeric LHCII complexes (the major antenna complex of photosystem II)
- stoichiometry N: 3
